Data on two substances can be found in article PMC2908537.

Holding throughout (test): SPR; WT or point-mutant CRT immobilised on a biosensor chip at about 500 RU by primary amine coupling, SE 15mer peptides run as analyte; read-out RU, mean ± SEM; 25°C, 10 mM HEPES pH 7.4, 50 mM KCl, 0.5 mM CaCl2, 100 µM ZnCl2, 0.005% surfactant P-20, flow 10 µl/min
In experiment [1] the target is CRT D220A mutant, 6xHis-tagged (not stated (rabbit or mouse cDNA cloned)) (UniProt P14211).
The target in experiment [2] is CRT H224A mutant, 6xHis-tagged (not stated (rabbit or mouse cDNA cloned)) (UniProt P14211).
Experiment [3] deals with wild-type CRT, 6xHis-tagged, from the pBAD vector (not stated (rabbit or mouse cDNA cloned)) (UniProt P14211).
The target of experiment [4] is CRT N279A mutant, 6xHis-tagged (not stated (rabbit or mouse cDNA cloned)) (UniProt P14211).
In experiment [5] the target is CRT E223A mutant, 6xHis-tagged (not stated (rabbit or mouse cDNA cloned)) (UniProt P14211).
Experiment [6] concerns the target CRT Y254A mutant, 6xHis-tagged (not stated (rabbit or mouse cDNA cloned)) (UniProt P14211).
For experiment [7], the target named is CRT E217A mutant, 6xHis-tagged (not stated (rabbit or mouse cDNA cloned)) (UniProt P14211).

With “SE-expressing 15mer synthetic peptide 65-79*0401”, the RU in experiment [1] worked out at 70.1 RU; in experiment [2] it was 68.2 RU; in experiment [3], 71.2 RU; in experiment [4], 106 RU; in experiment [5], 56.7 RU; in experiment [6], 66.5 RU. The RU in experiment [7] is 50.9 RU.

Consider “SE-expressing 15mer synthetic peptide 65-79*0404”, for which the RU in experiment [1] came out at 120 RU; in experiment [2], 128 RU; in experiment [3], 128 RU; in experiment [4], 145 RU; in experiment [5], 84.6 RU; in experiment [6], 113 RU. The RU in experiment [7] amounted to 106 RU.
